Broadly, the Km is the substrate concentration at which the rate is half of its maximum.

Substrate in this data set: CN(C)C(=N)NCCC[C@H](N)C(=O)O
As to the kind of experiment: cells, lysate or membranes.

B1: dimethylarginine dimethylaminohydrolase 1 (DDAH1) (Homo sapiens) (protein)
chain: AGLGHPAAFGRATHAVVRALPESLGQHALRSAKGEEVDVARAERQHQLYVGVLGSKLGLQVVELPADESLPDCVFVEDVAVVCEETALITRPGAPSRRKEVDMMKEALEKLQLNIVEMKDENATLDGGDVLFTGREFFVGLSKRTNQRGAEILADTFKDYAVSTVPVADGLHLKSFCSMAGPNLIAIGSSESAQKALKIMQQMSDHRYDKLTVPDDIAANCIYLNIPNKGHVLLHRTPEEYPESAKVYEKLKDHMLIPVSMSELEKVDGLLTCCSVLINKKVDS
In the case of B1, the Km was determined as 45 ± 2 µM.

(Values after PMC5460274, “Human dimethylarginine dimethylaminohydrolase 1 inhibition by proton pump inhibitors and the cardiovascular risk marker asymmetric dimethylarginine: in vitro and in vivo significance” (Scientific Reports, 2017).)
